US20240309060A1, “POLYPEPTIDE BAX/NPM INHIBITORS” (TRUSTEES OF BOSTON UNIVERSITY, priority 2023, published 2024)
Square brackets hold non-standard residues; d marks the D form. βAla = NCCC(=O)O

Experiments:
[1] = biological target: human nucleophosmin 1 (NPM1) (human), P06748; experiment: SPR on human NPM1, KD calculated as koff/kon
[2] = biological target: human nucleophosmin 1 (NPM1) (human), P06748; experiment: SPR on human NPM1, mean of at least three peptide concentrations below saturation

Sequence of human nucleophosmin 1 (NPM1) (human), P06748 (P06748 whole entry): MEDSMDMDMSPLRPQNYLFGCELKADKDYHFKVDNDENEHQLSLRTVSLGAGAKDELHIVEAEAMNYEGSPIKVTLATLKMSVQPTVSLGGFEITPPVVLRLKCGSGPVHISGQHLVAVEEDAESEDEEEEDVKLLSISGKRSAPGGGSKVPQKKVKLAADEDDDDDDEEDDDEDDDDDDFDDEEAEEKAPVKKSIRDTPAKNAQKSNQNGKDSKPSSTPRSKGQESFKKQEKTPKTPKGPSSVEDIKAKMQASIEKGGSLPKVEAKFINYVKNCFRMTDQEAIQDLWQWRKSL

B1: NPMB1-I-010 (peptide)
peptide: Ac-KKRRRKKRRRKKRRRK[βAla]TVTIFVAGVLTASLTIWKKMG-OH
SMILES: CC[C@H](C)[C@H](NC(=O)[C@@H](NC(=O)[C@H](CC(C)C)NC(=O)[C@H](CO)NC(=O)[C@H](C)NC(=O)[C@@H](NC(=O)[C@H](CC(C)C)NC(=O)[C@@H](NC(=O)CNC(=O)[C@H](C)NC(=O)[C@@H](NC(=O)[C@H](Cc1ccccc1)NC(=O)[C@@H](NC(=O)[C@@H](NC(=O)[C@@H](NC(=O)[C@@H](NC(=O)CCNC(=O)[C@H](CCCCN)NC(=O)[C@H](CCCNC(=N)N)NC(=O)[C@H](CCCNC(=N)N)NC(=O)[C@H](CCCNC(=N)N)NC(=O)[C@H](CCCCN)NC(=O)[C@H](CCCCN)NC(=O)[C@H](CCCNC(=N)N)NC(=O)[C@H](CCCNC(=N)N)NC(=O)[C@H](CCCNC(=N)N)NC(=O)[C@H](CCCCN)NC(=O)[C@H](CCCCN)NC(=O)[C@H](CCCNC(=N)N)NC(=O)[C@H](CCCNC(=N)N)NC(=O)[C@H](CCCNC(=N)N)NC(=O)[C@H](CCCCN)NC(=O)[C@H](CCCCN)NC(C)=O)[C@@H](C)O)C(C)C)[C@@H](C)O)[C@@H](C)CC)C(C)C)C(C)C)[C@@H](C)O)[C@@H](C)O)C(=O)N[C@@H](Cc1c[nH]c2ccccc12)C(=O)N[C@@H](CCCCN)C(=O)N[C@@H](CCCCN)C(=O)N[C@@H](CCSC)C(=O)NCC(=O)O
- Kd [1]: 842 nM
- koff [2]: 0.0616 s⁻¹
- kon [2]: 73200 M⁻¹ s⁻¹

B2: NPMB1-I-011 (peptide)
peptide: Ac-RREEERREEERREEEK[βAla]TVTIFVAGVLTASLTIWKKMG-OH
SMILES: CC[C@H](C)[C@H](NC(=O)[C@@H](NC(=O)[C@H](CC(C)C)NC(=O)[C@H](CO)NC(=O)[C@H](C)NC(=O)[C@@H](NC(=O)[C@H](CC(C)C)NC(=O)[C@@H](NC(=O)CNC(=O)[C@H](C)NC(=O)[C@@H](NC(=O)[C@H](Cc1ccccc1)NC(=O)[C@@H](NC(=O)[C@@H](NC(=O)[C@@H](NC(=O)[C@@H](NC(=O)CCNC(=O)[C@H](CCCCN)NC(=O)[C@H](CCC(=O)O)NC(=O)[C@H](CCC(=O)O)NC(=O)[C@H](CCC(=O)O)NC(=O)[C@H](CCCNC(=N)N)NC(=O)[C@H](CCCNC(=N)N)NC(=O)[C@H](CCC(=O)O)NC(=O)[C@H](CCC(=O)O)NC(=O)[C@H](CCC(=O)O)NC(=O)[C@H](CCCNC(=N)N)NC(=O)[C@H](CCCNC(=N)N)NC(=O)[C@H](CCC(=O)O)NC(=O)[C@H](CCC(=O)O)NC(=O)[C@H](CCC(=O)O)NC(=O)[C@H](CCCNC(=N)N)NC(=O)[C@H](CCCNC(=N)N)NC(C)=O)[C@@H](C)O)C(C)C)[C@@H](C)O)[C@@H](C)CC)C(C)C)C(C)C)[C@@H](C)O)[C@@H](C)O)C(=O)N[C@@H](Cc1c[nH]c2ccccc12)C(=O)N[C@@H](CCCCN)C(=O)N[C@@H](CCCCN)C(=O)N[C@@H](CCSC)C(=O)NCC(=O)O
- Kd [1]: 337 nM
- koff [2]: 0.0299 s⁻¹
- kon [2]: 88500 M⁻¹ s⁻¹
